# B1: IP10FBscFv38MH (murine IP-10 fused to scFv38 of the 38c13 lymphoma) (protein, part only; not given: scFv38 VH and VL, tags, not shown: small tags and cut ends)
# chain, part: IPLARTVRCNCIHIDDGPVRMRAIGKLEIIPASLSCPRVEIIATMKKNDEQRCLNPESKTIKNLMKAFSQKRSKRAPEFNDQAPKSLE
# Key:
# [1] = molecular target: chemokine receptors of MCP-3 on murine splenocytes and purified T cells; experiment: cell-based or functional assay
# [2] = molecular target: chemokine receptor of IP-10 on murine splenocytes and purified T cells (murine) (UniProt O88410); experiment: cell-based or functional assay
# Sequence of UniProt O88410 (O88410 whole entry): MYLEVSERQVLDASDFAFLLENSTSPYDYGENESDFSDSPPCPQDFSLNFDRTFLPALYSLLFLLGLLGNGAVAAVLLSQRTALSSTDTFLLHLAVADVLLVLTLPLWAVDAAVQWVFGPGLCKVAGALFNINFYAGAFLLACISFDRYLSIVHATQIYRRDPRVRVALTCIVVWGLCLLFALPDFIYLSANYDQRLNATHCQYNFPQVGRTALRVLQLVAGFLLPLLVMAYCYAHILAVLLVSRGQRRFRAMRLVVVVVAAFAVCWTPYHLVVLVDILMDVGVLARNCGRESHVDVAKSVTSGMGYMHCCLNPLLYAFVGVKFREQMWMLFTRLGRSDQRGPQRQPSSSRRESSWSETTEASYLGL
Molecule,in vitro chemotaxis of murine lymphocytes (48-well microchemotaxis chamber): concentration of maximum activity [1] [µg/mL],in vitro chemotaxis of murine lymphocytes (48-well microchemotaxis chamber): concentration of maximum activity [2] [µg/mL]
MCP3FBscFv38MH (MCP-3 fused to scFv38 of the 38c13 lymphoma) (from UniProt Q03366 24-97),100,
B1,,100
